Results: IntAct's records for PubMed 20023629

Target: mcl1_human MCL1 (UniProt Q07820)
Sequence (Q07820 whole entry): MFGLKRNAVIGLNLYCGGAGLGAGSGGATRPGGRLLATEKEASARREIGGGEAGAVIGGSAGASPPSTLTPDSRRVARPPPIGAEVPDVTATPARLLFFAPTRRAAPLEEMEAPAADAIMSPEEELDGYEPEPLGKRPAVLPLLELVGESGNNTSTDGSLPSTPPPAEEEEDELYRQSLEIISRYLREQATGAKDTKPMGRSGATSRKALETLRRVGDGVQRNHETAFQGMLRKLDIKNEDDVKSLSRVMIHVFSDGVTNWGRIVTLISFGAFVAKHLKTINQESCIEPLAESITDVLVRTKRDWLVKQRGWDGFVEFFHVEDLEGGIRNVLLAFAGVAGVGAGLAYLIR

- effect of a mutation on the interaction: disrupting interaction
Substance: Ubiquitin carboxyl-terminal hydrolase 9X (Homo sapiens), Q93008 C1566S
